Legend:
Assay in all cases: SPR, antibody captured, C2 as analyte;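 further: biacore SPR at 37 °C, anti-C2 mAbs captured via goat anti-human IgG on CM5 chips, double-referenced sensorgrams fit to a 1:1 kinetic or steady-state model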
[1] = target: T1, human C2 A717S (human, UniProt P06681 21-752)
T1 sequence: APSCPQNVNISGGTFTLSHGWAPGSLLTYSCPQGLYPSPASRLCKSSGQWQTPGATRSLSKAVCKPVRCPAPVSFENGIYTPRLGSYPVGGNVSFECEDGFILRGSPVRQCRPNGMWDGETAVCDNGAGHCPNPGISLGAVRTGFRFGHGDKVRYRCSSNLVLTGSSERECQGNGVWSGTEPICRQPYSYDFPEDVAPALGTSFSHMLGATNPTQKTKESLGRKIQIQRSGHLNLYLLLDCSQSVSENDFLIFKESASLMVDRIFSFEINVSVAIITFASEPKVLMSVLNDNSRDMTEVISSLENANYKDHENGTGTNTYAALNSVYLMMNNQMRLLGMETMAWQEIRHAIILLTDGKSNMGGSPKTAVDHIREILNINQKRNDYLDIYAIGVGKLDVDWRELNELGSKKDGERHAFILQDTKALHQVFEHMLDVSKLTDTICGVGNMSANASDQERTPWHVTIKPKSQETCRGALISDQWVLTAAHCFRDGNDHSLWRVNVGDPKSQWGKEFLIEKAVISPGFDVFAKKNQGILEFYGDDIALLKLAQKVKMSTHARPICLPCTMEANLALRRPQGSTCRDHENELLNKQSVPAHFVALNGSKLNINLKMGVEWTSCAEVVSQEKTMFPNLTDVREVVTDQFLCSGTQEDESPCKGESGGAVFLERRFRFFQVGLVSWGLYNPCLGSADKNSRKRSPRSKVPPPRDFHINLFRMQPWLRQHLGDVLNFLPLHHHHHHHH

[2] = target: T2, human C2 K430A (human, UniProt P06681 21-752)
T2 sequence: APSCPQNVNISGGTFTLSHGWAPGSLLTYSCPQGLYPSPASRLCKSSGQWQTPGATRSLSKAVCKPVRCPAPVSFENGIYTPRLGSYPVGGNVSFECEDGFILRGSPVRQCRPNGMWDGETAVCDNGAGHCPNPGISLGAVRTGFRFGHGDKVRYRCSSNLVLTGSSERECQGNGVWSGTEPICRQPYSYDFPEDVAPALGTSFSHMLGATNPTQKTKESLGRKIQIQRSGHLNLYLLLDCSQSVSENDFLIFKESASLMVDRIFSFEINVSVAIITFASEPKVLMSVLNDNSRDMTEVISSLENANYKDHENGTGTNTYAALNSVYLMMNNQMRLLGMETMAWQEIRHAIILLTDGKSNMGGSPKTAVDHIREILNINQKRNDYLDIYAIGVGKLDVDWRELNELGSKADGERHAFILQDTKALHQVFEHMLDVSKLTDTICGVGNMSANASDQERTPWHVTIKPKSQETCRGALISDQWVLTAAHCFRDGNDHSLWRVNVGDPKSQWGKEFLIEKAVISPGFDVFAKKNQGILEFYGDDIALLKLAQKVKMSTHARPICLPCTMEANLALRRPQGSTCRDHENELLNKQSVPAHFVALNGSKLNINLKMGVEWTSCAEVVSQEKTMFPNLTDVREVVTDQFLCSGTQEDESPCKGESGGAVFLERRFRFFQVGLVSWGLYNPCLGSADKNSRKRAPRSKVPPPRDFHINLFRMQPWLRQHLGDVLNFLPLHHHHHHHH

[3] = target: T3, human C2 D441A (human, UniProt P06681 21-752)
T3 sequence: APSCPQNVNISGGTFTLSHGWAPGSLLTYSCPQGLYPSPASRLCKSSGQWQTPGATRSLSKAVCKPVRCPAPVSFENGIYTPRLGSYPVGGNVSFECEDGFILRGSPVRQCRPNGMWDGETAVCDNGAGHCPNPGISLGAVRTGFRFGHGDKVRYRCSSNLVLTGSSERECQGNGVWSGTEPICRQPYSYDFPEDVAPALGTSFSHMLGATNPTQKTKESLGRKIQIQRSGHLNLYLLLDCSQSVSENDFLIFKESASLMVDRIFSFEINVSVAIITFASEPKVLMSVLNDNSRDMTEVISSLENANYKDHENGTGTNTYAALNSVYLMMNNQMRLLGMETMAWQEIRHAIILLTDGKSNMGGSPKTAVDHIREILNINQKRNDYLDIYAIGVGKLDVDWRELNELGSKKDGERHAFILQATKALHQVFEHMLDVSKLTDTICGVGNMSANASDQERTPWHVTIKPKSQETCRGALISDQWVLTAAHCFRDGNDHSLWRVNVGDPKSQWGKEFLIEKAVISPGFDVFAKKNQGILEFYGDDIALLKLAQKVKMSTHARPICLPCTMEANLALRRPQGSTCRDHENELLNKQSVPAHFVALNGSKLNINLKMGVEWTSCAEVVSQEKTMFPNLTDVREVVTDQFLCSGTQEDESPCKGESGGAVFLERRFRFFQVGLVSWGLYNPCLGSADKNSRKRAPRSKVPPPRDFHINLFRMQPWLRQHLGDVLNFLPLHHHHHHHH

[4] = target: T4, human C2 G677A (human, UniProt P06681 21-752)
T4 sequence: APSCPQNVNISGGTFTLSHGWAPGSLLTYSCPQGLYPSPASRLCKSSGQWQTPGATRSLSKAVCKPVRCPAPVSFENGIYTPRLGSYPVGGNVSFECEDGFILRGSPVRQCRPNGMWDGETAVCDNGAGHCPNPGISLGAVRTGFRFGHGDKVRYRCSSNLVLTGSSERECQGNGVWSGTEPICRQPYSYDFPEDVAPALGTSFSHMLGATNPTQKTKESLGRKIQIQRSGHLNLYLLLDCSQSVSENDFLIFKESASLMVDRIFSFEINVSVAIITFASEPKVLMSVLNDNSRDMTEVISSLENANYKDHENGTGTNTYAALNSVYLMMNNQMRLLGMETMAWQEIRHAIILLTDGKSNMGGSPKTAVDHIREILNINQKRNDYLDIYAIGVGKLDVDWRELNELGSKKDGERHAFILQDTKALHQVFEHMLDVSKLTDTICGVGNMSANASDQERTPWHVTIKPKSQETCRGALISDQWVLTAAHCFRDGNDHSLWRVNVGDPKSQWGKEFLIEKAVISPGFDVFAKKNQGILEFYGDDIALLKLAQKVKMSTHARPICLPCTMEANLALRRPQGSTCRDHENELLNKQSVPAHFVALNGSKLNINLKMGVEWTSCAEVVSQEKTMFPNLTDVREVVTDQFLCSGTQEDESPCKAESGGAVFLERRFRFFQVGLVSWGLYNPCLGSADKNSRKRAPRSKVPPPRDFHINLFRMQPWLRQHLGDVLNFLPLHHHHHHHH

B1: RF16-226 (antibody, human IgG4 S228P, lambda)
heavy: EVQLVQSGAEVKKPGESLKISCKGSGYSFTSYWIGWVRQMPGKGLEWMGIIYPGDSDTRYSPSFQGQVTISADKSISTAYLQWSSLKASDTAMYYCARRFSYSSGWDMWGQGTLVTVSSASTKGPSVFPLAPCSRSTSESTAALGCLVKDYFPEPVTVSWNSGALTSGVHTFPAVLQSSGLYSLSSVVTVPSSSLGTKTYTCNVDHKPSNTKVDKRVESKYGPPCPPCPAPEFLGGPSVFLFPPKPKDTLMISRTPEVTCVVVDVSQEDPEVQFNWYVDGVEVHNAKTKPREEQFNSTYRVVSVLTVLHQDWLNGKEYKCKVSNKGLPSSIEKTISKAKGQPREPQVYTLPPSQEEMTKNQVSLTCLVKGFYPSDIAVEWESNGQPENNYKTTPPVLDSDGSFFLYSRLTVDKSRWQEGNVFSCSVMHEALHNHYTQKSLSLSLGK
light: SYELTQPPSVSVSPGQTARITCSGDALTSKYVAWYQQKSGLAPLLVIYEDTRRPSGIPAKFSGSSSGSVATLTISGAHGDDEADYYCYSTDASGHQRVFGGGTKLTVLSQPKAAPSVTLFPPSSEELQANKATLVCLISDFYPGAVTVAWKADGSPVKAGVETTKPSKQSNNKYAASSYLSLTPEQWKSHRSYSCQVTHEGSTVEKTVAPTECS
notes: pH-dependent anti-C2 antibody from a phage display library; also called WT
Binder B1 has a Kd [1] of 406 nM, a Kd [2] of 62 nM and a Kd [3] of 63.9 nM. The Kd [4] was 8.7 nM.

Source: patent US20220332804A1 (CSL INNOVATION, published 2022)
